Test results as given in patent publication US20170275375A1 (published 2017).

B1: 2G9 (IMMU-cPD1) (antibody, V domains shown)
VH: VKLQESGGGLVKPGGSLKLSCAASGFAFSSNDMSWVRQTPEKRLEWVATISGGGINTYYPDSVKGRFTISRDNARNTLDLQMSSLRSEDTALYYCARRSNYAWFAYWGQGTPVTVSA
VL: not shown
notes: also called chimeric anti-PD1; chimeric version of 5G9
B2: humanized anti-PD1 antibody version 5 (V5) (antibody, V domains shown)
VH: QVQLVESGGGLVKPGGSLRLSCAASGFAFSSNDMSWVRQAPGKGLEWVATISGGGINTYYPDSVKGRFTISRDNAKNTLYLQMNSLRAEDTAVYYCARRSNYAWFAYWGQGTPVTVSA
VL: DIQLTQSPASLAVSLGQRATISCRASESVDTYGISFMNWFQQKPGQPPKLLISPNQGSGVPARFSGSGSGTDFTLTINSLEAEDTAVYFCQQSKEVPWTFGGGTKLEIK
notes: V5 is V4 with a putative light-chain N-glycosylation site removed; also called hPD1 v5; hPD1 (v5)

Assays:
[1] = biological target: T1, human PD1 expressed on cells (activated Jurkat T cells; SpESFX-2D1 transfectants) (human, UniProt Q15116 25-288); experiment: binding to 2D1 cells transfected with human PD1
T1 construct: whole, on cells; Endogenous on stimulated Jurkat cells; transfected human PD1 on SpESFX-2D1; also called CD279; 2D1 cells
T1 sequence (Q15116 25-288): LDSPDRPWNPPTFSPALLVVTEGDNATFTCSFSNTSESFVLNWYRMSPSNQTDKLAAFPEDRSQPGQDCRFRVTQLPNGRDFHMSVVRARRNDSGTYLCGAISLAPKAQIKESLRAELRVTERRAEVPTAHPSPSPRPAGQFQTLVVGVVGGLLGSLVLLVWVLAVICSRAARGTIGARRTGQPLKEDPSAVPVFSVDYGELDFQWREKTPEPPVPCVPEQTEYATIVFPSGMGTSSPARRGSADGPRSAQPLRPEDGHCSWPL

[2] = biological target: T2, recombinant human PD1-His (human, UniProt Q15116 25-167, limits assumed); experiment: in vitro binding to recombinant human PD1-His (FIG. 32)
T2 construct: also called recombinant PD1-His; not shown: His tag
T2 sequence (Q15116 25-167 limits assumed): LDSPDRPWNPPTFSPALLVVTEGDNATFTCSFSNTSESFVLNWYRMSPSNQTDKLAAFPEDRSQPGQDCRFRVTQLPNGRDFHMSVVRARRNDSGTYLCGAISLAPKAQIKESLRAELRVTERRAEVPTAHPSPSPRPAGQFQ

Binder	EC50 [1] [µg/mL]	EC50 [2] [nM]
B1	0.168	0.072
B2	0.568	
